Assay results taken from PMC2957832 (Biochemical and biophysical research communications, 2010).

Molecular target: the molecule itself
Assay: SEC

B1: Purβ core tryptic fragment (residues 29–305) (domain or fragment, mouse, UniProt O35295 29-305, looked up)
chain: GGGGGGGGPGGEQETQELASKRLDIQNKRFYLDVKQNAKGRFLKIAEVGAGGSKSRLTLSMAVAAEFRDSLGDFIEHYAQLGPSSPEQLAAGAEEGGGPRRALKSEFLVRENRKYYLDLKENQRGRFLRIRQTVNRGGGGFGGGPGPGGLQSGQTIALPAQGLIEFRDALAKLIDDYGGDEDELAGGPGGGAGGPGGGLYGELPEGTSITVDSKRFFFDVGCNKYGVFLRVSEVKPSYRNAITVPFKAWGKFGGAFCRYADEMKEIQERQRDKLYER
stoichiometry N: 2
